From paper PMC12881670, “Investigation into ligand selectivity and bias at the formyl peptide receptor family” (The Journal of Pharmacology and Experimental Therapeutics, 2025)
Where no end group is shown, it is not given here. [ ]: non-standard residue; d: D form.

What was measured:
Experiment in all cases: cell-based or functional assay
[1] = biological target: T1, FLAG-tagged mouse Fpr1 (Mm_Fpr1) (mouse, UniProt P33766 1-364)
T1 sequence (looked up): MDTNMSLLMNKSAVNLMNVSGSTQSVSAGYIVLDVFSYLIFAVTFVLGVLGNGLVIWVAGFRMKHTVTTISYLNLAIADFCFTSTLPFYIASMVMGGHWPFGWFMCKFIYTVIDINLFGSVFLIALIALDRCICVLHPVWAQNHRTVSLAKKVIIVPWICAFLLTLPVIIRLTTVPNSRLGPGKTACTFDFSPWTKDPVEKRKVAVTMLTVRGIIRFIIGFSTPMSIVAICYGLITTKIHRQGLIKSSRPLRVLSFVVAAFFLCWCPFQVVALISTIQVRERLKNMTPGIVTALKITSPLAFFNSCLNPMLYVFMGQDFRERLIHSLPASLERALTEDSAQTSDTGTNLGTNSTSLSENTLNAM

[2] = biological target: T2, FLAG-tagged mouse Fpr2 (Mm_Fpr2) (mouse, UniProt O88536 1-351)
T2 sequence (looked up): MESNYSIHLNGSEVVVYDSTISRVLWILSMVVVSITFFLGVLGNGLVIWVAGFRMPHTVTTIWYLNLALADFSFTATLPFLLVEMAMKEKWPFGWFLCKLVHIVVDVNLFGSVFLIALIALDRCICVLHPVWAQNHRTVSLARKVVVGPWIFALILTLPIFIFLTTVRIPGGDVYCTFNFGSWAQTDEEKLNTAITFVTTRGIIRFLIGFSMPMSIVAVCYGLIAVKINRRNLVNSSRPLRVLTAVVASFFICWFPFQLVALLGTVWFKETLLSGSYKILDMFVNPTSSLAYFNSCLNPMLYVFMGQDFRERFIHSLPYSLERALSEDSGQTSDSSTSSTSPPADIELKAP

[3] = biological target: T3, FLAG-tagged human FPR1 (Hs_FPR1) (human, UniProt P21462 1-350)
T3 sequence (looked up): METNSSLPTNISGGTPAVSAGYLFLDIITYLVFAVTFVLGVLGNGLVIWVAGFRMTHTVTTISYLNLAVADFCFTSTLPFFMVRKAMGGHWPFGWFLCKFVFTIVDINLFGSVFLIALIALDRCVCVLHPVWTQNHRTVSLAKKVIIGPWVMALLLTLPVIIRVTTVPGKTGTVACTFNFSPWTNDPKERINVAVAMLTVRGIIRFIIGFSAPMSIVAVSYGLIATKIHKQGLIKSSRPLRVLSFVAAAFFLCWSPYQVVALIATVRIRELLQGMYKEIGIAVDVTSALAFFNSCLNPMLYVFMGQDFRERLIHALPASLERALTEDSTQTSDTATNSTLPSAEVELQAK

[4] = biological target: T4, FLAG-tagged human FPR2 (Hs_FPR2) (human, UniProt P25090 1-351)
T4 sequence (looked up): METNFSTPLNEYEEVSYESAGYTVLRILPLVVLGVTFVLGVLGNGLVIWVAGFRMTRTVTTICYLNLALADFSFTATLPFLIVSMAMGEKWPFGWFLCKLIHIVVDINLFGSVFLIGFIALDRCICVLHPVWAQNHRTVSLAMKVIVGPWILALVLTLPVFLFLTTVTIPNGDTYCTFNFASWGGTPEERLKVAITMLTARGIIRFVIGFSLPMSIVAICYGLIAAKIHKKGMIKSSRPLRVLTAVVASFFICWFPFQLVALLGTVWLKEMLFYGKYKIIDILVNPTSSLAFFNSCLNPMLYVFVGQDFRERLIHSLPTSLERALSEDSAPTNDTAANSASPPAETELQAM

receptor internalization (flow cytometry): Emax (% of 1 μM WKYMVm) [1]: 108%
receptor internalization (flow cytometry): Log EC50 (M) [1]: -8.01 log M
receptor internalization (flow cytometry): Emax (% of 1 μM WKYMVm) [2]: 102%
receptor internalization (flow cytometry): Log EC50 (M) [2]: -7.66 log M
receptor internalization (flow cytometry): Emax (% of 1 μM WKYMVm) [3]: 106%
receptor internalization (flow cytometry): Log EC50 (M) [3]: -7.49 log M
receptor internalization (flow cytometry): Emax (% of 1 μM WKYMVm) [4]: 97.5%
receptor internalization (flow cytometry): Log EC50 (M) [4]: -8 log M
B1: WKYMVm (peptide)
peptide: WKYMV[dM]
notes: the last residue is the D form; the bought peptide is probably also an amide (surmise); source: bought: Tocris
